The values that follow come from the RNAGym collection of RNA variant scans (doi:10.7554/elife.90254).

To fix the notation:
B1: OR4K15 (parent)
chain: GUUAACGGUCAUAGGCCAUGGAAACUAGGAGCACCAUUUCGCUGCCAGUGAAGAAAUGAACAAAGAAAAUCUGGGCCAGGCAGGCAUCAAAAGAAAUAGUCUUGCGCUCAACCAGAAAGUCUGUAAUCAUUUUAAGGGUA

This series covers variants of B1. Nature of the series: self-cleavage, relative activity (ratio to wild type); higher = more cleavage; in vitro, sequencing; the parent is a self-cleaving ribozyme.
For the variant GUUAACGGUCAUAGGCCAUGGAAACUAGGAGCACCAUUUCGCUGCCAGUGAAGAAAUGAACAUAGAAAAUCUGGGCCAGGCAGGCAUCAAAAGAAACAGUCUUGCGCUCAACCAGAAAGUCUGUAAUCAUUUUAAGGGUA, the self-cleavage was 1.05.
Take GUUAACGGUCAUAGGCCAUGGAAACUAGGAGCACCAUUUCGCUGCCAGUGAAGAAAUGAACAAAGAAAAUCUGGGCCAGGCAGGCAUCAAAAGAAAUAGUCUUGCGCUCCACCAGAGAGUCUGUAAUCAUUUUAAGGGUA: the self-cleavage is 0.64.
Consider GUUAACGGUCAUAGGCCAUGGAAACUAGGAGCACCAUUUCGCUGCCAGUGAAGAAAUGAACAAAGAAAAUCUGGGCCAGGCAGGCAUCAAAAGAAAUAGUCUUGCGCUCCACCAGAAAGUCGGUAAUCAUUUUAAGGGUA, for which the self-cleavage is 0.56.
Next, GUUAACGGUCAUAGGCCAUGGAAACUAGGAGCACCAUUUCGCUGCCAGUGAAGAAAUGAACAAAGAAAUUCUGGGCCAGGCAGGCAUCAAAAGAAAUAGUCUUGCGCUCAACCAGAAAGUCUGUAAUCAUUUUAAGUGUA: 2.12; GUUAACGGUCAUAGGCCAUGGAAACUAGGAGCACCAUUUCGCUGCCAGUGAAGAAAUGAACAAAGAAAAUCUGGGCCAGGCAGGCAUCAAAAGAGAUAAUCUUGCGCUCAACCAGAAAGUCUGUAAUCAUUUUAAGGGUA: 1.52; GUUAACAGUCAUAGGCCAUGGAAACUAGGAGCACCAUUUCGCUGCCAGUGAAGAAAUGAACAAAGAAAAUCUGGGCCAGGCAGGCAUCAAAAGAAAUAGUCUUGCGCUCAACCAGAAAGUCUGUAAUCAUUCUAAGGGUA: 1.2.
The value for GUUAACGGUCAUAGGCCAUGGAAACUAGGAGCACCUUUUCGCUGCCAGUGAAGAAAUGAACAAAGAAAAUCUGGGCCAGGCAGGCAUCAAAAGAAAUAGUCUUGCACUCAACCAGAAAGUCUGUAAUCAUUUUAAGGGUA was 0.02; that for GUUAACGGUCAUAGGCCAUGGAAACUAGGAGCACCAUUUCGCUGCCAGUGAAGAGAUGAACAAAGAAAAUCUGGGCCAGGCAGGCAUCAAGAGAAAUAGUCUUGCGCUCAACCAGAAAGUCUGUAAUCAUUUUAAGGGUA was 0.98.
The value for GUUAACGGUCAUAGGCCAUGGAAACUAGGUGCACCAUUUCGCUGCCAGUGAAGAAAUGAACAAAGAAAAUCUGGGCCAGGCAGGCAUCAAAAGAAAUAGUCUUGCGCUCAACUAGAAAGUCUGUAAUCAUUUUAAGGGUA was 0.04; that for GUUAACGGUCAUAGGCCAUGGAAACUAGGAGCACCAUUUCGCUGCCAGGGAAGAAAUGAACAAAGAAAGUCUGGGCCAGGCAGGCAUCAAAAGAAAUAGUCUUGCGCUCAACCAGAAAGUCUGUAAUCAUUUUAAGGGUA was 0.88.
GUUAACGGUCAUAGGCCAUGGAAACUAGGAGCACCAUUUCGCUGCCAGUGGAGAAAUGAACAAAGAAAAUCUGGGCCGGGCAGGCAUCAAAAGAAAUAGUCUUGCGCUCAACCAGAAAGUCUGUAAUCAUUUUAAGGGUA: the self-cleavage was determined as 0.2.
As to GUUAACGGUUAUAGGCCAUGGAAACUAGGAGCACCAUUUCGCUGCCAGUGAAGAAAUGAACAAAGAAAAUCUGGGCCAGGCAGGCAUCAAAAGAAAUAGUCUUGCGCUCAACCAGAAAGUCUGUAAUCAUCUUAAGGGUA, the self-cleavage stood at 0.47.
Turning to GUUAUCGGUCAUAGGCCGUGGAAACUAGGAGCACCAUUUCGCUGCCAGUGAAGAAAUGAACAAAGAAAAUCUGGGCCAGGCAGGCAUCAAAAGAAAUAGUCUUGCGCUCAACCAGAAAGUCUGUAAUCAUUUUAAGGGUA, the self-cleavage turned out to be 1.83.
The value for GUUAACGGUCAUAGGCCAUGGAAACUAGGAGCACCAUUUCGCUGCCAGUGAAGAAAUGAACAAAGAAAAUCUGAGCCAGGCAGGCAUCAAAAGAAAUAGUCUUGCGCUCAACCAGAAGGUCUGUAAUCAUUUUAAGGGUA was 0.14; that for GUUAACGGUCAUAGGCCAUGGAAACUAGGAGCACCAUUUCGCUGCCAGUGAAGAAAUGAACAAAGAAAAUCUGGGCCAGGCAGGCAUCAAAAGAAAUAGUCUUGCGCUCAACCAGAAAGUCUGUAAUCCUUUUAAGGGUA was 0.97; that for GUUAACGGUCAUAGGCCAUGGAAACUAGGAGCACCAUUUCGCUGCCAGUGAAGAAAUGAACAAAGAAAUUCUGGGCCCGGCAGGCAUCAAAAGAAAUAGUCUUGCGCUCAACCAGAAAGUCUGUAAUCAUUUUAAGGGUA was 0.31.
Regarding GUUAACGGUCAUAGGCCAUGGAAACUAGGAGCACCAUUUCGCUGCCAGUGAAGAAAUGAACAAAGAAAAUCUGGGCCAGGCAGGCAUCAAAAGGAAUAGUCUUGCGCUCAACCAGAAAGUCUGUAAUCAUUUUAAGGGUG, the self-cleavage was determined as 1.53.
The value for GUUAACGGUCAUAGGCCAUGGAAACUAGGAGCACCAUUUCGCUGCCAGUGAAGAAAUGAACAAAGAAAAUCUGGGCCAGGCAUGCAUCAAAAGAAAUAGUCUUGCGCUCGACCAGAAAGUCUGUAAUCAUUUUAAGGGUA was 0.06; that for GUUAACGGUCAUAGGCCAUGGAAACUAGGAGCACCAUUUCGCUGCCAGUGAAGAAAUGAACAAAGAAAAUCUGGGCCAGGCAGGCCUCAAAAGAAAUAGUCUUGCGCUCAACCAGAAAGUCUGUAAUCAUUCUAAGGGUA was 0.9; that for GUUAACGGUCAUAGGCCAUGGAAACUAGGAGCACCAUUUCGCUGCCAGUGAAGAAACGAACAAAGAAAAUCUGGGCCAGGCAGGCAUUAAAAGAAAUAGUCUUGCGCUCAACCAGAAAGUCUGUAAUCAUUUUAAGGGUA was 1.04.
Next, GUUAACGGUCAUAGGCCAUGGAAACCAGGUGCACCAUUUCGCUGCCAGUGAAGAAAUGAACAAAGAAAAUCUGGGCCAGGCAGGCAUCAAAAGAAAUAGUCUUGCGCUCAACCAGAAAGUCUGUAAUCAUUUUAAGGGUA: 1.14.
